The results in this text go back to patent publication US9938505B2, “Polypeptide composition and culture method for pluripotent stem cell using same” (FUJIFILM Corporation, priority 2013, dated 2018).

Series [1] is described as follows: Evaluation of adsorbability with respect to culture dish (OPA/NAC fluorescence). The settings on record: FIG. 1. It counts as physicochemical. On the procedure:
Each of the polypeptides obtained as above was diluted with a predetermined buffer such that they could be added to wells at a predetermined final concentration of 0 pmol/cm^2 to 200 pmol/cm^2. Thereafter, each of the polypeptides was added in an amount of 64 μL to a plasma-treated 96-well plate made of polystyrene (Tissue Culture-Treated, Falcon). Each of the polypeptides was allowed to adsorbed onto the plate by being incubated for 2 hours at 37° C., and then the wells were washed twice with PBS, thereby obtaining surfaces coated with each of the polypeptides of RCP-1 to RCP-16.
Among the surfaces coated with each of the polypeptides obtained as above, the surfaces coated with RCP-1 and RCP-11 to RCP-16 were applied with 64 μL of a borate buffer and 64 μL of 1 N NaOH, followed by incubation for 24 hours at 80° C. and 100% humidity. […] After incubation for 30 minutes at 40° C., the fluorescence intensity thereof was measured by using an ENVISION MULTILABEL COUNTER (trade name, PerkinElmer Inc.) (excitation 355 nm/fluorescence 486 nm). […]

The target of series [2] is T1, Plasminogen Activator Inhibitor-1 (PAI-1) (Homo sapiens, UniProt P05121).
T1 construct: purchased R & D Systems Inc 1786-PI
Description: Evaluation of PAI-1 binding properties (plate assay, Scatchard plot). The note with it: for Binding constant: KA from slope of Scatchard plot, PAI-1 170 nM to 2.6 nM, RCP-5 immobilized from 100 μg/ml. The method, then:
By using a Plasminogen Activator Inhibitor-1 (PAI-1) known to bind with a polypeptide having a structure in which Cys 25 and Cys 31 are cross-linked to each other, detection of the cross-linking structure of Cys 25 and Cys 31 was tried.
The polypeptide compositions II-1 and II-2 (100 μg/ml) were added to a flat-bottomed black 96-well plate (half-Area) made of polystyrene at 64 μL/well. The entirety of the plate was covered with a sealing film (Funakoshi Co., Ltd.) and left to stand at 4° C. such that RCP-5 in each of the polypeptide compositions was immobilized. After 12 hours, the liquid in the wells was discarded, and TBS (NIPPON GENE CO., LTD.) containing 5% Bovine Serum Albumin (Sigma-Aldrich Co, LLC.) was added thereto at 150 μL/well. The plate was left to stand for 1 hour at 37° C., and then the liquid in the wells was discarded. Furthermore, BLOCKER CASEIN (trade name, Thermo Scientific Inc.) was added thereto at 150 μL/well, and the plate was left to stand at 37° C. as above so as to performing blocking. After 1 hour, TBS (TBST) containing 0.05% Tween 20 was added thereto at 150 μL/well, and the liquid was continuously discarded from the wells. By performing the above operation 4 times in total, the inside of the wells was washed.
Then, a solution of recombinant PAI-1 (catalog number 1786-PI, R & D Systems Inc) serially diluted with TBS from 170 nM to 2.6 nM at the same factor was added to the respective well at 50 μL/well, and the plate was left to stand at 37° C. After 1 hour, the PAI-1 solution was discarded from the wells, and the wells were washed with TBST 4 times in total by the same method as described above, thereby removing unbound PAI-1. […]
Furthermore, an undiluted solution of HRP-labeled anti-goat IgG antibodies (catalog number 81-1620, Life Technologies) was diluted 7,500-fold with TBS and added to the wells at 100 μL/well. […] The excitation wavelength and the fluorescence wavelength were set to be 330 nm and 410 nm respectively, and the binding of RCP-5 to PAI-1 was measured as a relative fluorescence unit by using ENVISION (trade name, PerkinElmer Inc). […]

In a further series the test system is iPS cells. Description: Cell growth property evaluation 2 (ALP activity, 72 hours). The settings on record: for Number of cells (%/LN-511): same method as Cell growth property evaluation 2, Table 13. The class given is cell-based, human. On the procedure: Each of the polypeptide liquids was added to the respective wells of a plasma-treated 96-well plate (BD Falcon) made of polystyrene having a plasma-treated cell culture surface, and the plate was held as it is for 2 hours at 37° C. such that the polypeptide was adsorbed thereonto, thereby obtaining a peptide-treated 96-well plate having a polypeptide-coated surface. Into the respective wells of the obtained peptide-treated 96-well plate, iPS cells suspended in a medium obtained by mixing TeSR2 (Stemcell Technologies Inc.) with NUTRISTEM (registered trademark, Bio Industries Inc.) at 1:1 (volume ratio) were seeded at a cell density of 10,000 cells/well. After 72 hours of culture, nonadhesive cells were washed off with PBS, and only adhesive cells were immobilized using 4% by mass paraformaldehyde (Wako Pure Chemical Industries, Ltd.). By using an ATTOPHOS (registered trademark) AP FLUORESCENT SUBSTRATE SYSTEM (Promega Corporation), the ALP activity was calculated, and from the calibration curve, the number of undifferentiated iPS cells having the ALP activity was calculated. In Table 11, the cell growth rate is expressed as a ratio calculated by regarding the number of cells after 72 hours of culture using recombinant laminin as being 100%. n=3.
By the same method as described in <Cell growth property evaluation 2> of Example 3, the cell growth properties of the polypeptide compositions II-1 and II-2 was evaluated. […] That is, it was understood that the polypeptide in which Cys 25, Cys 31, and the intramolecular cross-linking structure bind with each other is excellent in the cell growth activity.

T1 sequence (P05121 24-402): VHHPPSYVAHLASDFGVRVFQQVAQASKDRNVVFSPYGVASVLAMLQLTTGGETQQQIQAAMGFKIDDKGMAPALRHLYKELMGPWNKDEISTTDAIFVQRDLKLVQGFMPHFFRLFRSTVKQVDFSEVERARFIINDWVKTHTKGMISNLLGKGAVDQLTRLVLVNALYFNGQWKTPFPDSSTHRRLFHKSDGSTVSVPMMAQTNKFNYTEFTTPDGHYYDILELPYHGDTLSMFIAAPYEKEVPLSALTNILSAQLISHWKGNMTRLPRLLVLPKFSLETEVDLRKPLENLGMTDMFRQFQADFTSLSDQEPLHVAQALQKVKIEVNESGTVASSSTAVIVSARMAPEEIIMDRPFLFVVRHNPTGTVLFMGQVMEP

On to “RCP-14: recombinant polypeptide SEQ ID NO: 27; human vitronectin positions 1-55 (GPLGDQESCKGRCTEGFNVDKKCQCDELCSYYQSCCTDYTAECKPQVTRGDVFTMPEDE; Synthetic peptide RCP-14)”, for which the “amount adsorbed onto the plate, as fraction of the amount of the polypeptide including SEQ ID NO: 3” value in series [1] is listed as “about ¼”.

B1: RCP-13: recombinant polypeptide SEQ ID NO: 26; human vitronectin positions 1-55, 56-130 (protein)
chain: GPLGDQESCKGRCTEGFNVDKKCQCDELCSYYQSCCTDYTAECKPQVTRGDVFTMPEDEYTVYDDGEEKNNATVHEQVGGPSLTSDLQAQSKGNPEQTPVLKPEEEAPAPEVGASKPEGIDSRPETLHPGRPQP
modifications: Synthetic peptide RCP-13
Regarding B1, the “amount adsorbed onto the plate, as fraction of the amount of the polypeptide including SEQ ID NO: 3” value in series [1] was “about ¼”.

B2: II-1: polypeptide composition containing RCP-5 after reduction treatment with Tris(2-carboxyethyl)phosphine Hydrochloride and dialysis (protein)
chain: MDQESCKGRCTEGFNVDKKCQCDELCSYYQSCCTDYTAECKPQVTRGDVFTMPEDEFWGRTSAGTRQPQFISRDWHGVPGQVDAAMAGRIYISGMAPRPSLAKKQRFRHRNRKGYRSQRGHSRGRNQN
For the molecule B2, in series [2], the Binding constant came to 0.22. For the same molecule, in series [2] (comparison of compositions), the “binding constant of PAI-1 (in words)” value is listed as “greater”. Moreover, in the series on iPS cells (comparison of compositions), the “cell growth properties (in words)” value is reported as “better than that of the polypeptide composition II-2”. Also, the “Number of cells (%/LN-511)” value in the series with iPS cells came to 107 ± 47 %/LN-511.

B3: II-2: comparative polypeptide composition containing RCP-5, frozen at −80° C. without being treated, then dialyzed (protein)
chain: B2 chain
B3 returned a Binding constant in series [2] of 0.06. For the same molecule, the “Number of cells (%/LN-511)” value in the series on iPS cells was found to be 79 ± 5 %/LN-511.
